{"source": "paper PMC8509923", "target": "T1, Upc2A DNA-binding domain (Candida glabrata) (UniProt Q6FX18)", "T1 sequence": "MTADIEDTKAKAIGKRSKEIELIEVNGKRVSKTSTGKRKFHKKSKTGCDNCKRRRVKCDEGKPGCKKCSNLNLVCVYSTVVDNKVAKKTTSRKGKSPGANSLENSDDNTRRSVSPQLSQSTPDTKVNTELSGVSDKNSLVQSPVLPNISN", "assay": "DNase I footprinting", "settings": "5' amino-MC6 on reverse strand", "data": [{"sequence": "ACTGCCACACAGAAGAGCAGCGGGACTACCGGAACACGATTAGCCTTCGTTTACATGTTGGCAAACCCAGGACATAGATCAGAGTGTATTACATTAGCACAGACCGGCCGTGGGTAAGTTTTTCCTGACTAAAATGGCCGCAGCTGCAAGTCCACGGAATATTTCCCTTTTTTGCTCGATAAGTTGTAC (double strand) [CDR1 promoter DNase I probe]", "values": [{"measurement": "binding", "result": "binds"}]}]}
